Assay: Active NC2st concentration in serum of treated Fgfr3^369/+ mice (cGMP assay)
Assay type: in vivo
Details: 13-18 hours after the last dose
Description: At necropsy (Day 64), blood samples were collected by cardiac puncture under isoflurane anesthesia 13-18 hours after the last dose. Blood samples were collected into Microvette 500Z/gel tube (Sarstedt, serum/gel clotting activator, #20.1344), incubated at room temperature for 30 to 60 minutes and centrifuged at 10,000×g for five minutes at 2-8° C. 100 μl of serum was then transferred into 0.5 mL tubes (Sarstedt, #72.699), and the remainder was transferred in a second tube. The two tubes were frozen in liquid nitrogen and stored at −80° C. until analysis.

## NC2st: Fc-CNP fusion: Strep-tag II, TEV site, human IgG-1 Fc, 16-amino acid glycine-rich linker, CNP22; SEQ ID NO: 502
Tx10 group
  mean NC2st blood serum level (active concentration): above the projected threshold for 50% reversal of the ACH phenotype
Tx100 group
  mean NC2st blood serum level (active concentration): nearly three-fold above the projected threshold for 100% reversal

From US9266939B2, “Compositions comprising natriuretic peptides and methods of use thereof” (Alexion Pharmaceuticals, Inc., priority 2010, dated 2016)
